The DeepSol protein solubility set

Experiment: soluble on expression in E. coli; label from the status in PepcDB or PDB records

| Sequence | soluble on expression in E. coli |
| --- | --- |
| MAKKDEHLRKPEWLKIKLNTNENYTGLKKLMRENNLHTVCEEAKCPNIHECWAVRRTATFMILGSVCTRACRFCAVKTGLPTELDLQEPERVADSVALMNLKHAVITAVARDDQKDGGAGIFAETVRAIRRKSPFTTIEVLPSDMGGNYDNLKTLMDTRPDILNHNIETVRRLTPRVRARATYDRSLEFLRRAKEMQPDIPTKSSIMIGLGETKEEIIEVMDDLLANNVDIMAIGQYLQPTKKHLKVQKYYHPDEFAELKEIAMQKGFSHCEAGPLVRSSYHADEQVNEASKKR | not soluble |
| MYNVEIRRPNSDDLEELHSFFRIVITNTFKDEGLSQLSDDIENEINTKKQYLKNDFDSNGEKRYFLLAIDTNNDKIIGTIEVGPASTLINSCTGGVLKDLYEIGTVFILPEYQKKGIGSFLLHTMFLTLLSRGITEYCLDSGYKKAQSIWTKKFGEPSYVLKDYWGESSDHMIWKKSLYDTPIIFELMAGDPLEHHHHHH | soluble |
| MSLKRFIPAWYSRNRWWESTSRPFYLKKQYTDFDDMISLMTMHSSNNVDYQLIVLSFSPYLRTFLHRYDLYESHYWSVFDEIQGIGHQTPQAIDYRDLSWPEGTEFIFTPFQIQAITGDNTFSKIHFSQEGYLMWVEDYKYSTIQRRFVFDDRGFISAVRTYTPDGDNNKKHYFSKDGEEIFVEDLNVNTVTINKNFQSKFKKVTYSSMAELIEEKFQSYVERELNEDDSVIVASDERHNSMMARTIDAPSLCFSIFTERNKVVTQDLYDSISRAYYCLVDTQANQNMIEHYAGLNMNNFNLLRVTPFDAQSLPNQSSQLYDTYIGLWIDGLDEIEIREIVNSLFQYIQHKDGYKLKILTKSRDNLTENLIDEVAHLNDLYHQEKKEISDVIEDVIQNKKETIIDIETVPFEEDLVSVISKLRVVVDLSLEPKLFLQICCIGAGIPQINKKRTDYVKHMHNGYIIDDISQTVESLDYFLAHLKNWNYSYAYSMRLTDDFSSINIIHQINQLFKGDVSSGTEGHHHHHH | soluble |
| MSLSVNDRDTSALRYFDFKDDEFVKPSPTEFNSWINREIVTKHHPHHNGYDEIYTKNQPQVIEGDFLYGDVRVKLANEWVSIYEYSLDSSSPSWNKIGRAVTDTNGHIKYNIPNNMKLSYGMHLIKLYVEGDGTSANMYIQVLDNTKKYVVFDMDGTLTTTDFEDVKQYAGEFFNSNYVAKMYPDVDNVVKYYASKGYGILYLTARPYWLSEESQTWLWKNGFPMGLLHTYTGGDVLLGEEAESFKAGYLNQLKSQGIEFDYGFGNEKTDVEAYSNIGIAKSNIFTIGKNRGIDGSVSIVSYTDYLKQLSGNEGHHHHHH | soluble |
| MSTRSARIVVVSSRAAAGVYTDDCGPIIAGWLEQHGFSSVQPQVVADGNPVGEALHDAVNAGVDVIITSGGTGISPTDTTPEHTVAVLDYVIPGLADAIRRSGLPKVPTSVLSRGVCGVAGRTLIINLPGSPGGVRDGLGVLADVLDHALEQIAGGDHPR | soluble |
| MGSDKIHHHHHHMQATDIATQQALAAALGVNRSAVTQAKNRDAIPQKWILQLARAYHLAPDWLEFGKGRQHQPPTSLHDPETVLVPRVKAVLSAGGGSLDVSGGVVENLPFRYDWLARRGHPAHMVLMNVTGDSMEPGIRHGDTLLIDQSHVTAQTGGVYAFGYEDSILVKRFGRDADAILLLSDNTAYAPIRIRGDEADLLHVIGKIVWLCRAVQ | not soluble |
| MLTPRDENNEGDAMPMLKKPRYSSLSGQSTNITYQEHTISREERAAAVGRHEGFRGCTIWFTGLSGAGKTTISFALERTLNKLGIPCYGLDGDNIRHGLCKNLGFSKEDRQENIRRVAEVAKLFADSGMICLAAFISPFQEDRLDARKIHESENVKFIEVHVSTTLEVCEQRDPKQLYKKARAGQILGFTGIDSAYEPPENAEIILDAGKDGVQQCVQKVLDHLESKGLLPEQIPDVPAVRELFVSDDLTVAELLKESQNLPTVELTKVDLQWLQVLAEGWATPLSGFMRERQYLQSMHFGQLLDLKHKVAFVGEKSDDKEDSWPMMDDINQSIPIVLPISDDVKKGLEGVTRIALKYNGQVYAILSDPEIFEHRKDERVCRQFGTNDPRHPAVAQVLESGNWLLGGDVAVVQKIQFNDGLDKYRKTPNELRAIFAEKNADAVFAFQLRNPIHNGHALLMRDTREKLLAEHKNPILLLHPLGGWTKDDDVPLDIRIKQHEAVIAERVLDPEWTVLSIFPSPMMYAGPTEVQWHARSRIAAGIQHYIVGRDPAGIQKPGSPDALYETTHGAKVLSMAPGLSALHILPFRVAAYDKTAKKMSFFDTSRKEDFENISGTKMRGLARNGDTPPEGFMAPTAWEVLAGYYKSLQNSN | not soluble |
| SNADDYTAGKEYVELSSPVPVSQPGKIEVVELFWYGCPHCYAFEPTIVPWSEKLPADVHFVRLPALFGGIWNVHGQMFLTLESMGVEHDVHNAVFEAIHKEHKKLATPEEMADFLAGKGVDKEKFLSTYNSFAIKGQMEKAKKLAMAYQVTGVPTMVVNGKYRFDIGSAGGPEETLKLADYLIEKERAAAKK | soluble |
| MFILSLLHDTVAIQPHQLSSDQQIVIKKRLNERLANKIIPDLGLCICVYDINEIGDSYILPGEGDCRARVKFRMIVFRPFVDEVIEAKVIGSSRQGLCLTIQFFEDIFVPAEKLPEPHVFEEEGQVWYWEYAQEDGEPPAKLYMDPGKIVRFRVTEIIFKDLKPELTHEERKTEKSMEIKGTMASTGLGCIGWWAAEDEDDEAVEDEQDEQEEVIQPKEEIRQPQEEVRQPVKIKEEPV | not soluble |
| MAHHHHHHMRLYNSLKQELVAATGAKMLGSGGLIDWSKHQVFDNPSDISQTFNEIIDMLAEYFDVDVYATRLNYYRDGTQWKPQHHDSHAYGGRALREDFTVGLSLGATRSLLFVHEASQRDFNFPQLNGDCFAFTGEVNSLFTHGVPRVHTPTGDRFSIIAWGRRRNLNERNGGVPSSAAAQVKGYRINTMEDAVEVAKQLVAAEPGAAAAKKAMPPPCASGDASSGGVATATRPAKRHKRRLQ | soluble |
| MGSDKIHHHHHHMILAAKLFGISENGIRVAVTRLASEGVIVSAERGFYQLSEQSLEWADVMLNRRAGLKETKAWNQKYLCVLTGTLGRVDRTALKRRERALKKYGFRELEPSVYIRPDNLVISLEDMLEHMKSIGLESGAKMCHINSFDQITTGMIKDLWQTENLNKNYEKYSHIIQHWLSRVPALGLEDAARESLLLGRQTISLLMNDPLLPEPFVNVEARDQFTADVKKLDEVGQRLWKQLHELTFGTAATSLLNLELPAVADVTPKILN | not soluble |
| MGSDKIHHHHHHMKNRFLIICTVLFLSSCLAYGQEQASVTNDFSENKQGCIQHPWQGKKVGYIGDSITDPNCYGDNIKKYWDFLKEWLGITPFVYGISGRQWDDVPRQAEKLKKEHGGEVDAILVFMGTNDYNSSVPIGEWFTEQEEQVLSAHGEMKKMVTRKKRTPVMTQDTYRGRINIGITQLKKLFPDKQIVLLTPLHRSLANFGDKNVQPDESYQNGCGEYIDAYVQAIKEAGNIWGIPVIDFNAVTGMNPMVEEQLIYFYDAGYDRLHPDTKGQERMARTLMYQLLALPVAF | not soluble |
| MAQSPFRRMTTPGGYQMSVAMTNCGERGWITDHTGYRYDPVDPRTGVPWPAMPPAFRDLARRAAEQGGFTGFAPDACLVNRYEPGTRLSLHQDKDELDYAAPIVSVSLGLPATFLFGGMARSDKPRRFRLVHGDVVVWGGASRLAYHGVAPLADGEHALLGRQRINLTFRKVLLEHHHHHH | soluble |
| MGSDKIHHHHHHMAVWNANEMPERDRFPYWREVLCEAYIALNPILEGEQRFKGEVKANLLDCINVTTISSSRQKIHRRRLDISRMPHEVYFLNLQVKGQCRMMQGSREALLEPGDFSLVDSTEPYLNDYCSDDWTQYSFRIPRAMLKPLLKQADKQTAIRFTSAHPIASVAIDYLKSVAQNAEHIGTASTPIANHIVDLVAMAAGVSTTEEDRARGTLRSQLSRSVIQFIGAHAADPTLTPAKAAQHFKISVRYVHRLLEESGETFSRLLLKRRLERCADDLRAEAAISISEIAFRWGFNDLSHFSKTFRHHFGVAPRDYRGQ | not soluble |
| MGHHHHHHSHMKVAQAKLKEIGPDDMNMEEYKKWHEDYSLFRKVSVYLLTGLELYQKGKYQEALSYLVYAYQSNAALLMKGPRRGVKESVIALYRRKCLLELNAKAASLFETNDDHSVTEGINVMNELIIPCIHLIINNDISKDDLDAIEVMRNHWCSYLGQDIAENLQLCLGEFLPRLLDPSAEIIVLKEPPTIRPNSPYDLCSRFAAVMESIQGVSTVTVK | not soluble |
| MATTTPERVMQETMDYHALNAMLNLYDKAGHIQFDKDQQAIDAFFATHVRPHSVTFASQHERLGTLVREGYYDDAVLARYDRAFVLRLFEHAHASGFRFQTFLGAWKFYTSYTLKTFDGKRYLEHFEDRVTMVALTLAQGDETLATQLTDEMLSGRFQPATPTFLNCGKQQRGELVSCFLLRIEDNMESIGRAVNSALQLSKRGGGVAFLLSNLREAGAPIKRIENQSSGVIPVMKMLEDAFSYANQLGARQGAGAVYLHAHHPDILRFLDTKRENADEKIRIKTLSLGVVIPDITFRLAKENAQMALFSPYDIQRRYGKPFGDIAISERYDELIADPHVRKTYINARDFFQTLAEIQFESGYPYIMFEDTVNRANPIAGRINMSNLCSEILQVNSASRYDDNLDYTHIGHDISCNLGSLNIAHVMDSPDIGRTVETAIRGLTAVSDMSHIRSVPSIAAGNAASHAIGLGQMNLHGYLAREGIAYGSPEALDFTNLYFYTITWHAVHTSMRLARERGKTFAGFAQSRYASGDYFTQYLQDDWQPKTAKVRALFARSGITLPTREMWLKLRDDVMRYGIYNQNLQAVPPTGSISYINHATSSIHPIVAKIEIRKEGKTGRVYYPAPFMTNENLDMYQDAYDIGPEKIIDTYAEATRHVDQGLSLTLFFPDTATTRDINKAQIYAWRKGIKSLYYIRLRQLALEGTEIEGCVSCAL | soluble |
| MKNNPKTRYPLRLEESYAKNIQKAVKEIEKVSLYEFDKYLAPMIDDKNIVNDSNLINDGLFDAASKLIRNAQTYFLGILQNRTAQKIVRKHINSVNAFNKSNVNSQLSARGINPLQTEKWLDSYVQAKIAENISYVTNIRDDYSKKFEQVIYRGITEGKSSNEIREELVHQAGMSSDKAAFIARDQTGTILGQMNSERQKRAGFQAFRWSDSGDERVRDSHRERNGKIYFYADNPLLPGEEYNCRCVAEPVDDEELLEESIDLGLSNQEEHAVKTYVSSEAYKLNDKLRNGYQLDESDLKLIDNLDKALGKMTNYDGEVTRSMFFDSSDDLVRFANNYNLNDVVQFPEYISTTKDIYSEQDSLRFVIMSSTGKDLGSYNKSEKEVLFNRDAKFIVKDRYLLDGKPFIVLEEYHE | not soluble |
| MALHDENVVWHSHPVTVQQRELHHGHRGVVLWFTGLSGSGKSTVAGALEEALHKLGVSTYLLDGDNVRHGLCSDLGFSDADRKENIRRVGEVANLMVEAGLVVLTAFISPHRAERQMVRERVGEGRFIEVFVDTPLAICEARDPKGLYKKARAGELRNFTGIDSVYEAPESAEIHLNGEQLVTNLVQQLLDLLRQNDIIRS | soluble |
| MSLEYENEIMDLINDYDMLRVLKHFTVAHVDYAKNITRYTEIPQIRVRAYLERLKEMGLLDYYTNTSIKRTEAKLKKSAEVHKHHTYYQINKKAEAVLKEITPKLYVKVLGKEKLELLCSRKVRKTSPDRCTGLQAMGLIDKCFDLTELGREVFEAALRMQAIRCQDEGHHHHHH | soluble |
| MSLTIYLMRHGQTYFNLWHKIQGWTDSPLTEEVIKQAKEIGRYFRENNINFDKGYSSTSERASDTLELATDHQLPYRRLKGLKEEYFGSFEAEDERLNPPVPYEDFFVKYGGESEDQVKMRMHDTMLKIARENADNSNILIVSHAGAIFNFLSTINMSIDQLFKIGFTNASVAKIEFKNDQFKVVEIINKKNNKFEVTQVNEGHHHHHH | soluble |
